In patent publication US20100196395A1 (Boehringer Ingelheim, published 2010):
Blank lines part the entries; values can stand above or below the binder they belong to.

Key:
rat IGF-2 [1] = target: T1, rat IGF-2 (rat, UniProt P01346 25-91); assay: ELISA titration of the IgG1 on coated rat IGF-2, OD 450
T1 construct: bought reagent

murine IGF-2 [2] = target: T2, murine IGF-2 (murine, UniProt P09535 25-91); assay: ELISA titration of the IgG1 on coated murine IGF-2, OD 450
T2 construct: bought reagent; also called mouse IGF-2

rat IGF-1 [3] = target: T3, rat IGF-1 (rat, UniProt P08025 49-118); assay: ELISA titration of the IgG1 on coated rat IGF-1, OD 450
T3 construct: bought reagent
T3 sequence (P08025 49-118 limits assumed): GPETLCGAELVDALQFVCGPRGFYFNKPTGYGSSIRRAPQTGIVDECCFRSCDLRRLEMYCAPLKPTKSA

[4] = target: recombinant human insulin (human, UniProt P01308 25-54; P01308 90-110); assay: ELISA titration of the IgG1 on coated human insulin, OD 450
recombinant human insulin, sequence (P01308 25-54 limits assumed, chain 1 of 2): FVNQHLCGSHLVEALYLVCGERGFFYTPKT
recombinant human insulin, sequence (P01308 90-110 limits assumed, chain 2 of 2): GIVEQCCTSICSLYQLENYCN

biotinylated IGF-1 [5] = target: T4, biotinylated IGF-1 (UniProt P05019 49-118, biotinylated (site not stated)); assay: competition ELISA: antibody blocks binding of biotinylated IGF-1 to coated IGF-1R, fluorescence readout
T4 construct: also called IGF-1 ligand
Protocol: To identify IGF antibodies that neutralize the ability of IGF-1 and IGF-2 to bind to the IGF-1R, an ELISA is established by coating plates with 1.5 μg/ml recombinant human IGF-1R (R&D Systems) which allows the binding of biotinylated IGF-1 and biotinylated IGF-2. Bound IGF-1 or IGF-2 is detected using alkaline phosphatase-conjugated streptavidin (1:10,000 dilution) (Roche). […] Antibody Fab fragments that block the binding of biotinylated ligand are identified by a reduction in fluorometric signal.

recombinant human IGF-2 [6] = target: T5, recombinant human IGF-2 (human, UniProt P01344 25-91); assay: ELISA titration of the IgG1 on coated human IGF-2, OD 450
T5 construct: mature; also called insulin-like growth factor-2

biotinylated IGF-1 [7] = target: T4, biotinylated IGF-1; assay: competition ELISA: antibody titrated against biotinylated IGF-1 binding to coated IGF-1R; antibody 40183; mass concentration
murine IGF-1 [8] = target: T6, murine IGF-1 (murine, UniProt P05017 49-118); assay: ELISA titration of the IgG1 on coated murine IGF-1, OD 450
T6 construct: bought reagent; also called mouse IGF-1

murine IGF-2 [9] = target: T2, murine IGF-2; assay: SPR (Biacore), antibody capture method, IGF antigen injected
Protocol: (§1) The sensor chip is coated with approximately 1000 RU of the reference antibody in flow cell 1 and approximately 1000 RU of a rabbit-anti-human Fc-gamma-specific antibody in flow cell 2 using the coupling reagents from an amine coupling kit. A target of 1000 RU is set in the surface preparation wizard of the Biacore 3000 software at a flow rate of 5 μl/min. Running buffer used is HBS-EP. […] The IGF antigens are diluted to 500, 250, 125, 62.5 and 31.3 nM in running buffer (HCB) and the different antigen dilutions are run singly over Fc1 and Fc2 with random order. Blank runs using running buffer only are run in-between. A blank run curve is subtracted from each binding curve before affinity analysis. Data evaluation is performed using the BIAevaluation software (version 4.1, Biacore, Freiburg, Germany). The dissociation and association phases of the kinetics are fitted separately. For the separate fit of the kdiss values a time-frame of the initial 200-300 seconds in the dissociation phase is used (range of steady decrease of signal). For the separate fit of the kₐₛₛ values, initial time frames of approx 100 seconds are used (range of steady increase of signal) and for calculation the individual kdiss values are used with the 1:1 Langmuir association model. The average values with the standard deviations of the kinetic data together with the corresponding dissociation (KD) and association (KA) constants are calculated.
(§2) The analysis is initially performed by capturing the IGF antibodies on the sensor chip and injecting a range of antigen concentrations, thereby eliminating the possibility of an avidity effect.

rat IGF-2 [10] = target: T1, rat IGF-2; assay: as above
Protocol: as §1, §2

recombinant human IGF-1 [11] = target: T7, recombinant human IGF-1 (human, UniProt P05019 49-118); assay: as above
T7 construct: mature; also called insulin-like growth factor-1
Protocol: as §1, §2

recombinant human IGF-2 [12] = target: T5, recombinant human IGF-2; assay: as above
Protocol: as §1, §2

rat IGF-1 [13] = target: T3, rat IGF-1; assay: as above
Protocol: as §1, §2

murine IGF-1 [14] = target: T6, murine IGF-1; assay: as above
Protocol: as §1, §2

recombinant human IGF-1 [15] = target: T7, recombinant human IGF-1; assay: SPR (Biacore), IGF coating method, bivalent antibody injected (avidity); IGF coated on the chip, bivalent antibody injected (avidity)
recombinant human IGF-1 [16] = target: T7, recombinant human IGF-1; assay: SPR (Biacore), IGF coating method, bivalent antibody injected (avidity)
Protocol: (§3) Affinity constants are also determined for binding of the IGF antibodies to human IGF-1 and IGF-2 using a method where the IGF ligands are coated to the Biacore sensor chip and a range of antibody concentrations injected. The approximately 30-50-fold increase in the binding constants using this method compared with the initial antibody capture method is likely due to an avidity effect where both antibody binding domains interact with an IGF molecule.

recombinant human IGF-2 [17] = target: T5, recombinant human IGF-2; assay: as above
Protocol: as §3

biotinylated IGF-1 [18] = target: T4, biotinylated IGF-1; assay: competition ELISA: antibody titrated against biotinylated IGF-1 binding to coated IGF-1R; antibody 40186; mass concentration

T1 sequence (P01346 25-91 limits assumed): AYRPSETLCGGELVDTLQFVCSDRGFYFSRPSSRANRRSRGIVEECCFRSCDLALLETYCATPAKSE

binding result (rat IGF-2 [1]): binds
binding result (murine IGF-2 [2]): binds
binding result (rat IGF-1 [3]): binds
binding result [4]: no binding (tested: 100 ng/ml)
IC50 (read off the curve) (biotinylated IGF-1 [5]): ~3 ng/mL
binding result (recombinant human IGF-2 [6]): binds
IC50 (biotinylated IGF-1 [7]): ~5 ng/mL
binding result (murine IGF-1 [8]): binds
B1: antibody 40183 (antibody, human IgG1, lambda, V domains shown)
VH: QVELVESGGGLVQPGGSLRLSCAASGFTWSSFAMSWVRQAPGKGLEWVSYISYLGSYTGYADSVKGRFTISRDNSKNTLYLQMNSLRAEDTAVYYCARGTKFDYWGQGTLVTVSS
VL: DIVLTQPPSVSGAPGQRVTISCTGSSSNIGTYDVHWYQQLPGTAPKLLIYSNSKRPSGVPDRFSGSKSGTSASLAITGLQSEDEADYYCSITRVFGGGTKLTVLG
notes: Fully human IgG1 / Ig lambda

Ka (murine IGF-2 [9]): 1.08e+08 M⁻¹
Kd (murine IGF-2 [9]): 9.56 nM
koff (murine IGF-2 [9]): 0.00586 s⁻¹
kon (murine IGF-2 [9]): 632000 M⁻¹ s⁻¹
Ka (rat IGF-2 [10]): 1.67e+08 M⁻¹
Kd (rat IGF-2 [10]): 6.49 nM
koff (rat IGF-2 [10]): 0.00351 s⁻¹
kon (rat IGF-2 [10]): 602000 M⁻¹ s⁻¹
Ka (recombinant human IGF-1 [11]): 2.16e+08 M⁻¹
Kd (recombinant human IGF-1 [11]): 4.66 nM
koff (recombinant human IGF-1 [11]): 0.0027 s⁻¹
kon (recombinant human IGF-1 [11]): 581000 M⁻¹ s⁻¹
Ka (recombinant human IGF-2 [12]): 2.86e+08 M⁻¹
Kd (recombinant human IGF-2 [12]): 3.62 nM
koff (recombinant human IGF-2 [12]): 0.00362 s⁻¹
kon (recombinant human IGF-2 [12]): 1.03e+06 M⁻¹ s⁻¹
Ka (rat IGF-1 [13]): 3.67e+08 M⁻¹
Kd (rat IGF-1 [13]): 2.76 nM
koff (rat IGF-1 [13]): 0.00301 s⁻¹
kon (rat IGF-1 [13]): 1.1e+06 M⁻¹ s⁻¹
Ka (murine IGF-1 [14]): 1.44e+08 M⁻¹
Kd (murine IGF-1 [14]): 7.1 nM
koff (murine IGF-1 [14]): 0.00329 s⁻¹
kon (murine IGF-1 [14]): 466000 M⁻¹ s⁻¹
Ka (recombinant human IGF-1 [15]): 1.22e+10 M⁻¹
binding result [4]: no binding (tested: 100 ng/ml)
Kd (recombinant human IGF-1 [16]): 0.14 nM
koff (recombinant human IGF-1 [16]): 0.00023 s⁻¹
kon (recombinant human IGF-1 [16]): 2.1e+06 M⁻¹ s⁻¹
Ka (recombinant human IGF-2 [17]): 1.45e+10 M⁻¹
Kd (recombinant human IGF-2 [17]): 0.072 nM
koff (recombinant human IGF-2 [17]): 0.000164 s⁻¹
kon (recombinant human IGF-2 [17]): 2.26e+06 M⁻¹ s⁻¹
IC50 (read off the curve) (biotinylated IGF-1 [5]): ~5 ng/mL
IC50 (biotinylated IGF-1 [18]): ~5 ng/mL
B2: antibody 40186 (antibody, human IgG1, lambda, V domains shown)
VH: QVELVESGGGLVQPGGSLRLSCAASGFTFSNYWMHWVRQAPGKGLEWVSGISGWSSWTYYADSVKGRFTISRDNSKNTLYLQMNSLRAEDTAVYYCARFGIDAYTKVYFDYWGQGTLVTVSS
VL: DIELTQPPSVSVAPGQTARISCSGDNIPLKYVSWYQQKPGQAPVLVIHDDNKRPSGIPERFSGSNSGNTATLTISGTQAEDEADYYCQSWASTGVVFGGGTKLTVLG
notes: Fully human IgG1 / Ig lambda from the HuCAL Gold library
